In general, Kd refers to a measure of binding affinity in units of concentration. Higher therefore signals a looser complex. As usually defined, the stoichiometry N is the number of molecules, sites or subunits per partner or assembly.

The labels stand for the following.
T1: trx-Ndel1 CT-CC (mouse, UniProt Q9ERR1-1 238-284)
T1 chain (looked up): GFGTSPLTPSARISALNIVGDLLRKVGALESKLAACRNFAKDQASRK

T2: DISC1 765–852 (mouse, UniProt Q811T9-1 765-852)
T2 sequence (looked up): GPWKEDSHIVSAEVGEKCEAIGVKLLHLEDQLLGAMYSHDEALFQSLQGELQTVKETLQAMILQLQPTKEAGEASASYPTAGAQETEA

B1: full-length Nde1 (natural protein, human, UniProt Q9NXR1-2 1-335, looked up)
chain: MEDSGKTFSSEEEEANYWKDLAMTYKQRAENTQEELREFQEGSREYEAELETQLQQIETRNRDLLSENNRLRMELETIKEKFEVQHSEGYRQISALEDDLAQTKAIKDQLQKYIRELEQANDDLERAKRATIMSLEDFEQRLNQAIERNAFLESELDEKENLLESVQRLKDEARDLRQELAVQQKQEKPRTPMPSSVEAERTDTAVQATGSVPSTPIAHRGPSSSLNTPGSFRRGLDDSTGGTPLTPAARISALNIVGDLLRKVGALESKLASCRNLVYDQSPNRTGGPASGRSSKNRDGGERRPSSTSVPLGDKGLDTSCRWLSKSTTRSSSSC
B2: DISC1 322–852 (domain or fragment, mouse, UniProt Q811T9-1 322-852, looked up)
chain: ADAHGWHTLLREWEPMLQDYLLSNRRQLEVTSLILKLQKCQEKVVEDGDYDTAETLRQRLEELEQEKGRLSWALPSQQPALRSFLGYLAAQIQVALHGATQRAGSDDPEAPLEGQLRTTAQDSLPASITRRDWLIREKQRLQKEIEALQARMSALEAKEKRLSQELEEQEVLLRWPGCDLMALVAQMSPGQLQEVSKALGETLTSANQAPFQVEPPETLRSLRERTKSLNLAVRELTAQVCSGEKLCSSLRRRLSDLDTRLPALLEAKMLALSGSCFSTAKELTEEIWALSSEREGLEMFLGRLLALSSRNSRRLGIVKEDHLRCRQDLALQDAAHKTRMKANTVKCMEVLEGQLSSCRCPLLGRVWKADLETCQLLMQSLQLQEAGSSPHAEDEEQVHSTGEAAQTAALAVPRTPHPEEEKSPLQVLQEWDTHSALSPHCAAGPWKEDSHIVSAEVGEKCEAIGVKLLHLEDQLLGAMYSHDEALFQSLQGELQTVKETLQAMILQLQPTKEAGEASASYPTAGAQETEA
B3: DISC1 765–835 (domain or fragment, mouse, UniProt Q811T9-1 765-835, looked up)
chain: GPWKEDSHIVSAEVGEKCEAIGVKLLHLEDQLLGAMYSHDEALFQSLQGELQTVKETLQAMILQLQPTKEA
B4: full-length Ndel1 (natural protein, mouse, UniProt Q9ERR1-1 1-345, looked up)
chain: MDGEDIPDFSSLKEETAYWKELSLKYKQSFQEARDELVEFQEGSRELEAELEAQLVQAEQRNRDLQADNQRLKYEVEALKEKLEHQYAQSYKQVSVLEDDLSQTRAIKEQLHKYVRELEQANDDLERAKRATIVSLEDFEQRLNQAIERNAFLESELDEKESLLVSVQRLKDEARDLRQELAVRERQQEVTRKSAPSSPTLDCEKMDSAVQASLSLPATPVGKGTENSFPSPKAIPNGFGTSPLTPSARISALNIVGDLLRKVGALESKLAACRNFAKDQASRKSYVPGSVNCGVMNSNGPECPRSGRATFFHKGAVNGFDPAPPPPGLGSSRPSSAPGMLPLSV
B5: Ndel1 with the C-terminal half (aa 194–345) truncated (domain or fragment, mouse, UniProt Q9ERR1-1 1-193, looked up)
chain: MDGEDIPDFSSLKEETAYWKELSLKYKQSFQEARDELVEFQEGSRELEAELEAQLVQAEQRNRDLQADNQRLKYEVEALKEKLEHQYAQSYKQVSVLEDDLSQTRAIKEQLHKYVRELEQANDDLERAKRATIVSLEDFEQRLNQAIERNAFLESELDEKESLLVSVQRLKDEARDLRQELAVRERQQEVTRK

Like-named read-outs stand apart in the source and are kept apart here.

In the data set “DISC1 322–852” the target is B2. The data set can be described thus: ITC. Background: In ITC the heat of successive injections is recorded.
The target in the data set “full-length Nde1” is B1. The data set can be described thus: ITC.
In another data set the target is T1, trx-Ndel1 CT-CC. The data set can be described thus: SEC-MALS. A general note: In gel filtration, larger molecules generally elute earlier.
Data set [1] concerns the molecule itself. The data set can be described thus: SEC-MALS.
For the data set “DISC1 765–835”, the target named is B3. The data set can be described thus: ITC.
For another data set, the target named is T2, DISC1 765–852. The data set can be described thus: NMR structure.
Data set [2] deals with the molecule itself. The data set can be described thus: SEC-MALS. The source holds these as a separate data set.

In the case of B1, the equilibrium dissociation constant (Kd) with DISC1 322–852 was approximately 40 nM. In the case of B2, the “stoichiometry N” value in the data set with full-length Nde1 was 1.

In the case of B3, the binding result with full-length Nde1 is given as “binds”. Besides, the “stoichiometry N” value with trx-Ndel1 CT-CC came to 1; in the data set “SEC-MALS [1]”, 2. For GFGTSPLTPSARISALNIVGDLLRKVGALESKLAACRNFAKDQASRK (domain or fragment, mouse, UniProt Q9ERR1-1 238-284, looked up) [Ndel1 CT-CC], the binding result with DISC1 765–835 and with DISC1 765–852 was “binds” each time. For STGGTPLTPAARISALNIVGDLLRKVGALESKLASCRNLVYDQSPNRT (domain or fragment, human, UniProt Q9NXR1-2 239-286, looked up) [Nde1 CT-CC], the binding result with DISC1 765–835 is given as “binds”. For the molecule B4, in the data set “SEC-MALS [2]”, the “stoichiometry N” value is 2.

Consider B5, for which the “stoichiometry N” value in the data set “SEC-MALS [2]” was 2.
